Source: PMC4620744 (Molecular cell, 2015)

Target: full-length H2A-H2B (S. cerevisiae, UniProt P04911 1-132; P02293 1-131)
Test: ITC

Kd: 300 nM
stoichiometry N: 1
B1: Pob3-C (domain or fragment)
chain: EVQERLQTALGSDSDEEDINMGSAGEDDESVDEDFQVSSDNDADEVAEEFDSDAALSDAEGGSDEERPSKKPKVE
